# Measured values taken from US20220218805A1.
# T1: Linear … (SEQ ID NO: 15) conjugated to BSA
# T1 sequence (peptide, conjugated to BSA): CGGGKLDFG
# B1: Ab21 (clone 2C6) (antibody, V domains shown)
# VH: EVQLQQSGAELVKPGASVKLSCTASGFNIKDTHMHWVKQRPEQGLEWIGKIDPSNGNTQYDPKFQGKATITADTSSNTAYLQLSSLTSEDTAVYYCATGFAYWGQGTLVTVSA
# VL: DIQMTQSPASLSASVGETVTITCRASGNIHNYLAWYQQKQGKSPQLLVYNAKTLADGVPSRFSGSGSGTQYSLKINSLQPEDFGSYYCQHFWYTPWTFGGGTKLEIK
# B2: Ab29 (clone 12D11) (antibody, V domains shown)
# VH: QIQLVQSGPELKKPGETVKISCKASGYTFTNYGMNWVKQAPGKGLKWMGWINTYSGEPTYVDDFKGRFAFSLETSASTAYLQINNLKNEDMATYFCARSPGAYYTLDYWGQGTSVTVSS
# VL: DIVMSQSPSSLAVSAGEKVTMSCKSSQSLLNSRTRKNYLAWYQQKPGQSPKLLIYWASTRESGVPDRFTGSGSGTDFTLTISSVQAEDLAVYYCKQSYNLYTFGGGTKLEIK
# Target: T1, Linear … (SEQ ID NO: 15) conjugated to BSA
# Assay: indirect ELISA, hybridoma supernatant on linear peptide-BSA
row,Binder,OD [OD]
1,B1,0.107
2,B2,0.075
